Values quoted from earlier work, collected in PMC10974892.

Columns and labels:
[1] = biological target: PhoE (Escherichia coli) (UniProt P02932)
[2] = biological target: OmpC (Escherichia coli) (UniProt P06996)
[3] = biological target: intelectin-1 (hIntL-1) (Homo sapiens) (UniProt Q8WWA0)
UniProt Q8WWA0, sequence (Q8WWA0 19-298): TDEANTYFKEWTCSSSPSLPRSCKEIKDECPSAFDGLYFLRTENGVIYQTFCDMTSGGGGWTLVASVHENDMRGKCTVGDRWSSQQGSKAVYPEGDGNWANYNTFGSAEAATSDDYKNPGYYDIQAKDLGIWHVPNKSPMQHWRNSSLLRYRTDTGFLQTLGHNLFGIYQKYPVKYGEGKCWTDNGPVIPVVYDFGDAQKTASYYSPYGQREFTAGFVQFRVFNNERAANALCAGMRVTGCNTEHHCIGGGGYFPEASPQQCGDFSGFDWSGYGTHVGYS

UniProt P06996, sequence (P06996 22-367): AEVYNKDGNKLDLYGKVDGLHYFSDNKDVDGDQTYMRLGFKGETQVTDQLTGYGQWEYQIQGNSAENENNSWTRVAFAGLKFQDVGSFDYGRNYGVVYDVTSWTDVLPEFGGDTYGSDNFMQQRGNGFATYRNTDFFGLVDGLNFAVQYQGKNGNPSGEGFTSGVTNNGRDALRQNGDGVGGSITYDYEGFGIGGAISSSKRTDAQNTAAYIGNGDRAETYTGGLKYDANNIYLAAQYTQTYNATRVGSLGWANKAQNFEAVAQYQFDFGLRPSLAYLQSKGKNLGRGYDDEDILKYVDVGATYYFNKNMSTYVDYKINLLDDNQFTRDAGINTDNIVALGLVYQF
UniProt P02932, sequence (P02932 22-351): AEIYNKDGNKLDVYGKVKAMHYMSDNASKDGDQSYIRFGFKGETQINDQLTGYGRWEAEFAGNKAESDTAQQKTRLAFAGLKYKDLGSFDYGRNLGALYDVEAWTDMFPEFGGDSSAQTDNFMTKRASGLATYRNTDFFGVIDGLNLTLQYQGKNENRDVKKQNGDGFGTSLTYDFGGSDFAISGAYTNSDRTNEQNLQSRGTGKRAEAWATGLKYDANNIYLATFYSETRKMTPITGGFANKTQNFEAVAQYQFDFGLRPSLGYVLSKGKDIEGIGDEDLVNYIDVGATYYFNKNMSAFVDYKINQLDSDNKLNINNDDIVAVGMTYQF

Substance: lactoferrin (from UniProt P02788)
- Kd [1]: 103 nM
- Kd [2]: 39 nM
- Kd [3]: 500 nM
